Experimental data taken from US20120148565.

Tests used:
[1] = target: GST fused WWP-1 (C. elegans HECT E3 ubiquitin ligase WWP-1, full length, wild type, N-terminal GST from pGEX-KG)
Chain of GST fused WWP-1 (C. elegans HECT E3 ubiquitin ligase WWP-1, full length, wild type, N-terminal GST from pGEX-KG) (chain, as listed by the source): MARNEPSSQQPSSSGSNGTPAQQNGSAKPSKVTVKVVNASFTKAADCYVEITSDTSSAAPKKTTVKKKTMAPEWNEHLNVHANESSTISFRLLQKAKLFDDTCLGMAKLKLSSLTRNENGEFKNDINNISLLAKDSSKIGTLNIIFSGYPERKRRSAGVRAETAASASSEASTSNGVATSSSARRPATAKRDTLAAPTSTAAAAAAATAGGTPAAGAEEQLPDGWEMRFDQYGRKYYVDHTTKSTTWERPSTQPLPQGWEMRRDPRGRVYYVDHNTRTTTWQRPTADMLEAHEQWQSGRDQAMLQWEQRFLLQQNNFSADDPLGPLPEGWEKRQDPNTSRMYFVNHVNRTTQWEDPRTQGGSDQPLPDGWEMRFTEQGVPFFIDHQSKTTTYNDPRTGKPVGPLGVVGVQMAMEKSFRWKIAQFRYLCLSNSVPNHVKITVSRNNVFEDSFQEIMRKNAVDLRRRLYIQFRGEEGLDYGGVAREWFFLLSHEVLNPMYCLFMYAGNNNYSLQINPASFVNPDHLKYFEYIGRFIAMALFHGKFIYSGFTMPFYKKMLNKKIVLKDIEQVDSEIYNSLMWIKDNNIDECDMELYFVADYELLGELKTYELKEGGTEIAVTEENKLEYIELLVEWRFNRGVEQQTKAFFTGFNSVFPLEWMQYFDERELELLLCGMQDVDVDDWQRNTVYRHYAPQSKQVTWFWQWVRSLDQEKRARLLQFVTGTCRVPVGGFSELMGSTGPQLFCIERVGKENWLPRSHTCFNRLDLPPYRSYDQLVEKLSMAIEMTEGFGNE

B1: recombinant UBC-18 (C. elegans E2 ubiquitin conjugating enzyme, GST tag removed by thrombin cleavage) (protein)
chain: MSATRRLQKELGDLKNCGVKAYENVECEETNLLKWTVLLIPDKEPYNKGAFKVGITFPVDYPFKPPKVAFETKIYHPNVDEEGKFCLPIVTAENWKPATKTEQVMMALLSLINEPEPSHPIRADVAEEFQKDHKKFMKTAEEHTRKHAEKRPE
in vitro ubiquitination assay of WWP-1 with embryo extract from ubc-18(ku354) mutant worms, recombinant UBC-18 added back [1]: ligase activity was restored with the addition of recombinant UBC-18 | in vitro ubiquitination assay using purified components (anti-Flag immunoblot) [1]: WWP-1 exhibited ubiquitin ligase activity in an E1 and UBC-18 dependent manner | in vitro ubiquitin conjugation reaction, SDS/PAGE with or without beta-mercaptoethanol (Flag tagged ubiquitin): UBC-18 is indeed a functional E2 and is capable of forming a thiol ester bond with ubiquitin
